Laboratory results published in article PMC4061085.

Experiments:
[1] = target: CK1δ KD (kinase domain of CK1δ) (rat) (UniProt Q06486)
[2] = target: CK1δ from rat as GST-tagged fusion protein (rat) (UniProt Q06486)
[3] = target: CK1ε from human as HIS-tagged fusion protein (human) (UniProt P49674)
Chain of UniProt P49674 (P49674 whole entry, the tested form may be a part): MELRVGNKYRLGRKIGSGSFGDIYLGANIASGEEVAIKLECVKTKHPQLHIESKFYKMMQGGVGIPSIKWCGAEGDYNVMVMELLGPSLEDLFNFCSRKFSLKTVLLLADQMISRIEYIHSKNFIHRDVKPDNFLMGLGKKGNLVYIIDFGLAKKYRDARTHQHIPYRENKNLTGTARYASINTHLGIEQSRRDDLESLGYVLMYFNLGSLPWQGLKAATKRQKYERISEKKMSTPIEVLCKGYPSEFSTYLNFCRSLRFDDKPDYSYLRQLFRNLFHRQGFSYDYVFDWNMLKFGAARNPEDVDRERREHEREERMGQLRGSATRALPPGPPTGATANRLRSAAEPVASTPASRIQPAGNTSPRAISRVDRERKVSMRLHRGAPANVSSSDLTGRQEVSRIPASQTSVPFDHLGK

| Km of phosphorylation of GST-tubulin by the CK1 isoform (Michaelis-Menten kinetics, in vitro kinase assay, 32P incorporation, 30 min at 30°C) [1] [µM] | Km of phosphorylation of GST-tubulin by the CK1 isoform (Michaelis-Menten kinetics, in vitro kinase assay, 32P incorporation, 30 min at 30°C) [2] [µM] | Km of phosphorylation of GST-tubulin by the CK1 isoform (Michaelis-Menten kinetics, in vitro kinase assay, 32P incorporation, 30 min at 30°C) [3] [µM] | Substance |
| --- | --- | --- | --- |
| 0.266 | 0.205 | 0.329 | Recombinant human α-tubulin1B (GST-tubulin) (from UniProt P68363 1-451) (natural protein) |
| 1.47 | 1.17 | 1.41 | Recombinant human β-tubulin2A (GST-tubulin) (from UniProt Q13885 1-445) (natural protein) |
| 0.438 | 0.337 | 0.602 | Recombinant human α-tubulin4A (GST-tubulin) (from UniProt P68366 1-448) (natural protein) |
